Source: publication PMC3696110, “Hsp70 Oligomerization Is Mediated by an Interaction between the Interdomain Linker and the Substrate-Binding Domain” (PLoS ONE, 2013)

Target: SBD641 (384-641), full-length substrate-binding domain of human Hsp70 with the interdomain linker (human) (UniProt P0DMV8)
Assay: native MS; nESI-MS of SBD641 with NR peptide at 1:1 molar ratio, 150 mM ammonium acetate pH 7.4, sample cone voltage 60 V (raised for collisional activation)

peptide molecules bound per SBD641 dimer: < 2
stoichiometry N: 1
Binder: NRLLLTG [NR peptide (NRLLLTG)]
